Data as given in US5786462, “High affinity ssDNA ligands of HIV-1 reverse transcriptase” (NeXstar Pharmaceuticals, Inc.).

Key:
[1] = biological target: T1, HIV-1 reverse transcriptase (Human immunodeficiency virus 1, UniProt P03366;P03366 P03366:600-1159,P03366:600-1039); assay: inhibition; Ki', RNA-dependent DNA polymerase activity, 10 nM RT, 40 nM substrate, 37 C; conditions: tags: expressed in E. coli, purified per Davies et al. 1991; label: 5'-32P; internal loop (AA opposite CG) helix
From the text: Assay For Inhibition of RNA-Dependent DNA Polymerase Activity. A substrate for the RNA-dependent DNA polymerase activity of HIV-1 RT was assembled by annealing an 18 nucleotide, 5' end-labeled DNA primer to a 30 nucleotide RNA template with a complementary 3' end (see FIG. 10), and purifying the duplex on a 12% non-denaturing acrylamide gel. The primer sequence matched the 3' terminal 18 nucleotides of tRNA^{Lys,3}, responsible for priming minus-strand DNA synthesis of the HIV-1 genome, and the template sequence paralleled the HIV-1 genomic primer binding site and downstream 12 nucleotides. A dilution series of inhibitory ssDNA ligand (to give a final concentration of 0, 1, 3, 9, 27, or 81 nM) was denatured in HRT Buffer at 70° C. for 5 minutes and allowed to renature slowly at 20° C. The primer:template substrate was added to a final concentration of 40 nM, along with dNTP's at 400 μM. The 10 μl reaction was initiated with the addition of either HIV-1, AMV, or MMLV-RT (to give a final concentration of 10 nM), allowed to proceed for 5 minutes at 37° C., and terminated with one volume of formamide. Extension products were separated on an 8% denaturing acrylamide gel and quantitated with an Ambis radioanalytic imager. […]

[2] = biological target: T1, HIV-1 reverse transcriptase; assay: filter; HRT buffer, 6 mM MgCl2, 37 C; conditions: tags: expressed in E. coli, purified per Davies et al. 1991, label: 5'-32P
Description: Nitrocellulose Filter Binding Assays. Oligonucleotides bound to proteins can be effectively separated from the unbound species by filtration through nitrocellulose membrane filters (Yarus, M. and Berg, P. (1970) Anal. Biochem. 35:450–465; Lowary, P. T. and Uhlenbeck, O. C. (1987) Nucleic Acids Res. 15:10483–10493; Tuerk, C. and Gold, L. (1990) Science 249:505–510). The affinity of the random ssDNA library for HIV-1 RT was determined using a protein excess nitrocellulose filter binding assay as described in Carey, J. et al. (1983) Biochemistry 22:2601–2609. Selections were performed with a saturating ssDNA concentration to promote competition among DNA ligands for a limited number of available target binding sites.
(§1) Binding Curves Confirm High Affinity of Individual Ligands. Affinity values of each of the eight chosen isolates for HIV-1 RT were measured using the filter binding assay described in Example 1 (FIGS. 7A–C). […] Differences in maximum percent bound likely reflect competing ligand structures with lower affinity. […] Indicated dissociation constants were determined as in Example 1.

[3] = biological target: T1, HIV-1 reverse transcriptase; assay: inhibition; Ki', RNA-dependent DNA polymerase activity; conditions: tags: expressed in E. coli, purified per Davies et al. 1991
From the text: Assay For Inhibition of RNA-Dependent DNA Polymerase Activity. A substrate for the RNA-dependent DNA polymerase activity of HIV-1 RT was assembled by annealing an 18 nucleotide, 5' end-labeled DNA primer to a 30 nucleotide RNA template with a complementary 3' end (see FIG. 10), and purifying the duplex on a 12% non-denaturing acrylamide gel. The primer sequence matched the 3' terminal 18 nucleotides of tRNA^{Lys,3}, responsible for priming minus-strand DNA synthesis of the HIV-1 genome, and the template sequence paralleled the HIV-1 genomic primer binding site and downstream 12 nucleotides. A dilution series of inhibitory ssDNA ligand (to give a final concentration of 0, 1, 3, 9, 27, or 81 nM) was denatured in HRT Buffer at 70° C. for 5 minutes and allowed to renature slowly at 20° C. The primer:template substrate was added to a final concentration of 40 nM, along with dNTP's at 400 μM. The 10 μl reaction was initiated with the addition of either HIV-1, AMV, or MMLV-RT (to give a final concentration of 10 nM), allowed to proceed for 5 minutes at 37° C., and terminated with one volume of formamide. Extension products were separated on an 8% denaturing acrylamide gel and quantitated with an Ambis radioanalytic imager.
The ability of each of the 8 isolates to inhibit the RNA-dependent DNA polymerase activity of HIV-1 RT was assayed by measuring the decrease in extension product formation from a primer::template substrate as a function of inhibitor concentration (FIGS. 10A–10E). The substrate for the inhibition assay was a DNA:RNA heteroduplex consisting of an 18 nucleotide end-labeled DNA primer (SEQ ID NO: 74) identical in sequence to the 3' end of tRNA^{Lys,3} annealed to a 30 nucleotide RNA template (SEQ ID NO: 75) whose sequence matches the genomic primer binding site and the first twelve transcribed nucleotides. Extension reactions were performed as described in Example 1 in the presence of 0, 81, 27, 9, 3, and 1 nM inhibitor as indicated in FIG. 10.

[4] = biological target: T1, HIV-1 reverse transcriptase; assay: filter; competition against RT1 gave Kc 3 nM (Example 5, FIG. 14); conditions: tags: expressed in E. coli, purified per Davies et al. 1991; pseudoknot
Description: 15:10483–10493; Tuerk, C. and Gold, L. (1990) Science 249:505–510). The affinity of the random ssDNA library for HIV-1 RT was determined using a protein excess nitrocellulose filter binding assay as described in Carey, J. et al. (1983) Biochemistry 22:2601–2609. Selections were performed with a saturating ssDNA concentration to promote competition among DNA ligands for a limited number of available target binding sites.
as §1

[5] = biological target: T1, HIV-1 reverse transcriptase; assay: filter; first 49 nt of RT1; conditions: tags: expressed in E. coli, purified per Davies et al. 1991

B1: RT1 (ssDNA)
DNA: ATCCGCCTGATTAGCGATACTCAGAAGGATAAACTGTCCAGAACTTGGAATATATCACTTGAGCAAAATCACCTGCAGGGG
Ki [1]: 0.3 nM
Kd ([2]; internal loop (AA opposite CG) helix): ~1 nM

B2: RT26 (ssDNA)
DNA: ATCCGCCTGATTAGCGATACTTACGTGAGCGTGCTGTCCCCTAAAGGTGATACGTCACTTGAGCAAAATCACCTGCAGGGG
Ki ([3]; label: 5'-32P, intramolecular primer:template junction with internal loop (AA opposite CG)): 2.7 nM
Kd ([2]; intramolecular primer:template junction with internal loop (AA opposite CG)): ~1 nM

B3: RT6 (ssDNA)
DNA: ATCCGCCTGATTAGCGATACTCAGGCGTTAGGGAAGGGCGTCGAAAGCAGGGTGGGACTTGAGCAAAATCACCTGCAGGGG
Ki ([3]; label: 5'-32P): 30 nM
Kd [2]: 5 nM

B4: RT4 (ssDNA)
DNA: ATCCGCCTGATTAGCGATACTTTAGCAAAGTTGAAGCCGGACTAACAAGCTCTACGACTTGAGCAAAATCACCTGCAGGGG
Ki ([3]; label: 5'-32P, internal loop variant (AA opposite AG)): 4.1 nM

B5: RT8 (ssDNA)
DNA: ATCCGCCTGATTAGCGATACTAGCCAGTCAAGTTAATGGGTGCCATGCAGAAGCAACTTGAGCAAAATCACCTGCAGGGG
Ki ([3]; label: 5'-32P, internal loop variant (CAA opposite TAG)): 13 nM

B6: RT10 (ssDNA)
DNA: ATCCGCCTGATTAGCGATACTTATTTGCCCTTGCAGGCCGCAGGAGTGCTAGCAGTACTTGAGCAAAATCACCTGCAGGGG
Ki ([3]; label: 5'-32P, intramolecular primer:template junction): 62 nM

B7: RT36 (ssDNA)
DNA: ATCCGCCTGATTAGCGATACTAAGCTCTTAGTTGATGCGCGGTCAAAATTTAAGCTACTTGAGCAAAATCACCTGCAGGGG
Ki ([3]; label: 5'-32P, internal loop variant (AA opposite A)): 6.5 nM

GGUCCGAAGUGCAACGGGAAAAUGCACU (ssRNA) [RNA pseudoknot (RNA pk)]
Ki ([3]; pseudoknot): 4.7 nM
Kd [4]: 5 nM

ATCCGCCTGAATAGCGATACTCAGAAGGATAAACTGTCCAGAACTTGGA (ssDNA) [RT1t49]
Kd [5]: 4 nM
